Test results: US20230287125A1 (LEPU BIOPHARMA, published 2023)

Key:
human PD-L1-Fc protein [1] = biological target: T1, human PD-L1-Fc protein (human, UniProt Q9NZQ7 19-238); test: receptor blocking ELISA: coated human PD-L1-Fc, blocked ligand biotin-labeled human PD-1-Fc (Bio-PD1), OD 450nm; panel with Hu67F3G7-22 [cont'd]
T1 construct: coating antigen of the ELISAs; also called rhPD-L1-Fc; not shown: Fc
Procedure: (§1) Briefly, microtiter plates were coated with human PD-L1-Fc protein at 0.5 μg/ml in PBS, 100 μl/well at 4° C. overnight, then blocked with 150 μl/well of 1% BSA at 37° C. for 2 hours. […] The plates were washed with PBS/Tween and then incubated with Streptavidin-HRP for 10 mins at 37° C. After washing, the plates were developed with TMB substrate and analyzed by spectrophotometer at OD 450 nm.

human PD-L1-Fc protein [2] = biological target: T1, human PD-L1-Fc protein; test: receptor blocking ELISA: coated human PD-L1-Fc, blocked ligand biotin-labeled human PD-1-Fc (Bio-PD1), OD 450nm; upper left panel (with Hu67F3G7-2)
Procedure: as §1

[3] = biological target: T2, human PD-L1-his tag protein (human, UniProt Q9NZQ7 19-238); test: SPR (Biacore T200), mAb captured on Protein A chip, PD-L1-his injected
T2 construct: also called human PD-L1-His protein; recombinant PD-L1 protein; not shown: his tag
Procedure: A serial dilution of human PD-L1-his tag protein was injected over captured antibody for 2 mins at a flow rate of 30 μl/min. The antigen was allowed to dissociate for 480-1500 s. All the experiment were carried out on a Biacore T200. Data analysis was carried out using Biacore T200 evaluation software.

human PD-L1-Fc protein [4] = biological target: T1, human PD-L1-Fc protein; test: receptor blocking ELISA: coated human PD-L1-Fc, blocked ligand biotin-labeled human CD80-Fc (Bio-CD80), OD 450nm; middle right panel (with Hu67F3G7-7)
Procedure: as §1

human PD-L1-Fc protein [5] = biological target: T1, human PD-L1-Fc protein; test: receptor blocking ELISA: coated human PD-L1-Fc, blocked ligand biotin-labeled human PD-1-Fc (Bio-PD1), OD 450nm; upper right panel (with Hu67F3G7-3)
Procedure: as §1

human PD-L1-Fc protein [6] = biological target: T1, human PD-L1-Fc protein; test: ELISA, antibody titrated on coated human PD-L1-Fc, OD 450nm; lower left panel (with Hu67F3G7-13 to -18); the table row is headed 'IC50' on the sheet although the curves rise
Procedure: (§2) To evaluate antigen binding activity, the humanized antibodies were subjected to ELISA test. Briefly, microtiter plates were coated with human PD-L1-Fc protein at 0.5 μg/ml in PBS, 100 μl/well at 4° C. overnight, then blocked with 200 μl/well of 1% BSA. Three-fold dilutions of humanized antibodies starting from 10 μg/ml were added to each well and incubated for 1 hour at 37° C. The plates were washed with PBS/Tween and then incubated with mouse-anti-human IgG Fab antibody conjugated with Horse Radish Peroxidase (HRP) for 1 hour at 37° C. After washing, the plates were developed with TMB substrate and analyzed by spectrophotometer at OD 450 nm.

human PD-L1-Fc protein [7] = biological target: T1, human PD-L1-Fc protein; test: ELISA, antibody titrated on coated human PD-L1-Fc, OD 450nm; upper left panel (with Hu67F3G7-1 to -6)
Procedure: as §2

rat PD-L1 protein = rat PD-L1 protein (rat, UniProt D4AE25 19-239); test: ELISA, coated rat PD-L1
human PD-L1-Fc protein [8] = biological target: T1, human PD-L1-Fc protein; test: receptor blocking ELISA: coated human PD-L1-Fc, blocked ligand biotin-labeled human PD-1-Fc (Bio-PD1), OD 450nm; middle left panel (with Hu67F3G7-5)
Procedure: as §1

human PD-L1-Fc protein [9] = biological target: T1, human PD-L1-Fc protein; test: receptor blocking ELISA: coated human PD-L1-Fc, blocked ligand biotin-labeled human CD80-Fc (Bio-CD80), OD 450nm; panel with Hu67F3G7-22 [cont'd]
Procedure: as §1

cynomolgus PD-L1 protein = cynomolgus PD-L1 protein (cynomolgus, UniProt G7PSE7 19-238); test: ELISA, coated cynomolgus PD-L1
human PD-L1-Fc protein [10] = biological target: T1, human PD-L1-Fc protein; test: ELISA, antibody titrated on coated human PD-L1-Fc, OD 450nm; upper right panel (with Hu67F3G7-7 to -12)
Procedure: as §2

human PD-L1-Fc protein [11] = biological target: T1, human PD-L1-Fc protein; test: receptor blocking ELISA: coated human PD-L1-Fc, blocked ligand biotin-labeled human CD80-Fc (Bio-CD80), OD 450nm; upper right panel (with Hu67F3G7-3)
Procedure: as §1

[12] = biological target: T3, human PD-L1 over-expressed on CHOK1 cells (human, UniProt Q9NZQ7 19-290); test: flow cytometry on PDL1-CHOK1 cells
T3 construct: whole, on cells; also called PDL1-CHOK1 cells
Procedure: After washing by PBS, Alexa Fluor® 647 AffiniPure Goat Anti-Human IgG (H+L) was added to each well and incubated at 4° C. for 30 mins. Samples were washed twice with FACS buffer. The mean florescence intensity (MFI) of Alexa Fluor® 647 was evaluated by FACSCanto.

human PD-L1-Fc protein [13] = biological target: T1, human PD-L1-Fc protein; test: ELISA, antibody titrated on coated human PD-L1-Fc, OD 450nm; lower right panel (with Hu67F3G7-19 to -22)
Procedure: as §2

T1 sequence (Q9NZQ7 19-238 limits assumed): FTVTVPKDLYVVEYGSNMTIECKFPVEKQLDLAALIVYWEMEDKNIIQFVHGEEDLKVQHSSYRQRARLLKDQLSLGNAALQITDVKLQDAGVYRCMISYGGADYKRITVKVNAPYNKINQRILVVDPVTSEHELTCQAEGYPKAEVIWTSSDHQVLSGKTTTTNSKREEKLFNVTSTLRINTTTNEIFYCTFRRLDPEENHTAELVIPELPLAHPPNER
T2 sequence (Q9NZQ7 19-238 limits assumed): as above
cynomolgus PD-L1 protein, sequence (G7PSE7 entry or part of it): as the sequence (Q9NZQ7 19-238 limits assumed) above, with A33T, A34S, S62N, R68Q, Q82R, F173L, T185A, T192I, H215L counted along it
T3 sequence (Q9NZQ7 19-290): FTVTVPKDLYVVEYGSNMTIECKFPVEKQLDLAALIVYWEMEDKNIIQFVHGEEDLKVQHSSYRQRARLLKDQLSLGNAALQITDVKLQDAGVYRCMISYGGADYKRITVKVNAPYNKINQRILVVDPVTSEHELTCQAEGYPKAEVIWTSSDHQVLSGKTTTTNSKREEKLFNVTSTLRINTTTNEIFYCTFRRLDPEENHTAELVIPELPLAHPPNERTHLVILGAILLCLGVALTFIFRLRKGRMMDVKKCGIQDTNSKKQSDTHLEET
rat PD-L1 protein, sequence (D4AE25 entry or part of it limits assumed): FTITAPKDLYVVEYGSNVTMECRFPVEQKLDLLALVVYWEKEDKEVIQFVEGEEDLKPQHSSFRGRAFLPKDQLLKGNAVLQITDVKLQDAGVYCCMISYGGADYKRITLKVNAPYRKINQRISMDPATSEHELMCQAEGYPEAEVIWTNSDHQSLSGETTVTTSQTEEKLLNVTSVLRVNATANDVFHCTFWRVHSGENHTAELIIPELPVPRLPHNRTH

B1: 67F3G7 chimeric mAb (antibody, V domains shown)
VH: QVKLLQSGAALVKPGASVKMSCKASGYIFTDFWVSWVKQSHEKSLEWIGEIYPNSGVSRYNEKFKGRATMTVDKSTSTAYLELSRLTSEDSAIYYCTKYFGYTYWFGYWGQGTLVTVSS
VL: DTVLTQSPALAVSLGQRITISCRASKSVSTYMHWYQQRSGLQPKLLIYSASHLESGVPSRFSGSGSGTDFTLTIDPVEADDIANYYCQQSNELPVTFGSGTKLEIK
notes: chimeric mAb of the hybridoma clone; also called 67F3G7-chimera
IC50 (human PD-L1-Fc protein [1]): 0.141 mg/L | IC50 (human PD-L1-Fc protein [2]): 0.149 mg/L | Kd [3]: 0.0244 nM | koff [3]: 6.19e-05 s⁻¹ | kon [3]: 2.54e+06 M⁻¹ s⁻¹ | IC50 (human PD-L1-Fc protein [4]): 0.283 mg/L | IC50 (human PD-L1-Fc protein [5]): 0.136 mg/L | EC50 (human PD-L1-Fc protein [6]): 0.0157 mg/L | EC50 (human PD-L1-Fc protein [7]): 0.0141 mg/L | binding result (rat PD-L1 protein): no binding (tested: dilutions starting from 10 µg/ml) | IC50 (human PD-L1-Fc protein [8]): 0.149 mg/L | IC50 (human PD-L1-Fc protein [9]): 0.293 mg/L | EC50 (cynomolgus PD-L1 protein): 0.0068 mg/L | EC50 (human PD-L1-Fc protein [10]): 0.0129 mg/L | IC50 (human PD-L1-Fc protein [11]): 0.289 mg/L | EC50 [12]: 0.103 nM | EC50 (human PD-L1-Fc protein [13]): 0.0147 mg/L
